Substrate: O=c1[nH]c(=O)c2[nH]c(=O)[nH]c2[nH]1
Experiment: purified protein, by the assay type
Conditions: other: 0.1M Na2HPO4/Na2H2PO4, pH 7.4, 24° C.

B1: pig uricase, SEQ ID NO:10 (Sus scrofa) (protein)
chain: MAHYRNDYKKNDEVEFVRTGYGKDMIKVLHIQRDGKYHSIKEVATSVQLTLSSKKDYLHGDNSDVIPTDTIKNTVNVLAKFKGIKSIETFAVTICEHFLSSFKHVIRAQVYVEEVPWKRFEKNGVKHVHAFIYTPTGTHFCEVEQIRNGPPVIHSGIKDLKVLKTTQSGFEGFIKDQFTTLPEVKDRCFATQVYCKWRYHQGRDVDFEATWDTVRSIVLQKFAGPYDKGEYSPSVQKTLYDIQVLTLGQVPEIEDMEISLPNIHYLNIDMSKMGLINKEEVLLPLDNPYGRITGTVKRKLTSRL
Protein B1 has a Km of 2.1 µM and a kcat of 7.83 s⁻¹.
